Data reported in PMC5486051, “BrWRKY65, a WRKY Transcription Factor, Is Involved in Regulating Three Leaf Senescence-Associated Genes in Chinese Flowering Cabbage”.
Positions count from the first letter of the chain named.

B1: BrDIN1 promoter W-box probe (dsDNA)
DNA 1: CGAGAGACCTGATTAAGAACATCTGACTTCAATTAAACCAATCACACTAC
DNA 2: GTAGTGTGATTGGTTTAATTGAAGTCAGATGTTCTTAATCAGGTCTCTCG
B2: BrDIN1 mutant W-box competitor (dsDNA)
DNA 1: B1 DNA 1 with C23A, T24A, G25A, C27A, T28A
DNA 2: B1 DNA 2 with A23T, G24T, C26T, A27T, G28T
B3: BrSGR1 promoter W-box probe (dsDNA)
DNA 1: TTTCACTCGTATCGTAAGATTGTTGACTCCAACACGCAAACAACAAAAAC
DNA 2: GTTTTTGTTGTTTGCGTGTTGGAGTCAACAATCTTACGATACGAGTGAAA
B4: BrSGR1 mutant W-box competitor (dsDNA)
DNA 1: B3 DNA 1 with T23A, T24A, G25A, C27A, T28A
DNA 2: B3 DNA 2 with A23T, G24T, C26T, A27T, A28T
B5: BrNYC1 promoter W-box probe (dsDNA)
DNA 1: GATCGCCAGATTGCAGTGACGGTTGACTTGAATAAAGAAAAATGAAAAAA
DNA 2: TTTTTTCATTTTTCTTTATTCAAGTCAACCGTCACTGCAATCTGGCGATC
B6: BrNYC1 mutant W-box competitor (dsDNA)
DNA 1: B5 DNA 1 with T23A, T24A, G25A, C27A, T28A
DNA 2: B5 DNA 2 with A23T, G24T, C26T, A27T, A28T

Key:
GST-BrWRKY65 [1] = biological target: T1, GST-BrWRKY65 (Brassica rapa var. parachinensis …, UniProt A0ACM8RC22 1-261); assay: EMSA; shift abolished dose-dependently by unlabeled self competitor (100x, 1000x); LightShift Chemiluminescent EMSA Kit; native polyacrylamide gel (Figure 5 legend; Methods says SDS-PAGE); buffer, salt, pH and temperature not stated; conditions: protein: recombinant; tags: GST (N-terminal, pGEX-4T-1); label: 5' biotin
GST-BrWRKY65 [2] = biological target: T1, GST-BrWRKY65; assay: competition; unlabeled mutant, 100-1000x excess over N3; LightShift Chemiluminescent EMSA Kit; native polyacrylamide gel (Figure 5 legend; Methods says SDS-PAGE); buffer, salt, pH and temperature not stated; conditions: protein: recombinant; tags: GST (N-terminal, pGEX-4T-1); label: unlabeled
GST-BrWRKY65 [3] = biological target: T1, GST-BrWRKY65; assay: competition; unlabeled mutant, 100-1000x excess over N2; LightShift Chemiluminescent EMSA Kit; native polyacrylamide gel (Figure 5 legend; Methods says SDS-PAGE); buffer, salt, pH and temperature not stated; conditions: protein: recombinant; tags: GST (N-terminal, pGEX-4T-1); label: unlabeled
GST-BrWRKY65 [4] = biological target: T1, GST-BrWRKY65; assay: competition; unlabeled mutant, 100-1000x excess over N1; LightShift Chemiluminescent EMSA Kit; native polyacrylamide gel (Figure 5 legend; Methods says SDS-PAGE); buffer, salt, pH and temperature not stated; conditions: protein: recombinant; tags: GST (N-terminal, pGEX-4T-1); label: unlabeled

T1 sequence (A0ACM8RC22 entry or part of it): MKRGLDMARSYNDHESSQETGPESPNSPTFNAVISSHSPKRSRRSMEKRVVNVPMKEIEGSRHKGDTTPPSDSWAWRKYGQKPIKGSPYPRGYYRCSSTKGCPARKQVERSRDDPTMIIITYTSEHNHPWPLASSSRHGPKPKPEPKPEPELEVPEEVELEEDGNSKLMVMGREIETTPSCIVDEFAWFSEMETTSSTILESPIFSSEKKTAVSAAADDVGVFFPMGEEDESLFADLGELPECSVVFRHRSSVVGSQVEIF

Row | Binder | binding result (GST-BrWRKY65 [1]) | also measured
1 | B1 | binds | –
2 | B2 | – | binding result (GST-BrWRKY65 [2]): no binding
3 | B3 | binds | –
4 | B4 | – | binding result (GST-BrWRKY65 [3]): no binding
5 | B5 | binds | –
6 | B6 | – | binding result (GST-BrWRKY65 [4]): no binding
